The supplement of paper PMC7877785
± gives the uncertainty stated by the source.

Assay: self-splicing fitness, log relative to wild type (ln ratio); higher = more splicing; Tetrahymena group I intron in knt gene, E. coli kanamycin selection, DiMSum; sequences stand for … in CUCUCU…GGAGGGAAAAGUUAUCAGGCAUGCACCUGGUAGCUAGUCUUUAAACCAAUAGAUUGCAUCGGUUUAAAAGGCAAGACCGUCAAAUUGCGGGAAAGGGGUCAACAGCCGUUCAGUACCAAGUCUCAGGGGAAACUUUGAGAUGGCCUUGCAAAGGGUAUGGUAAUAAGCUGACGGACAUGGUCCUAACCACGCAGCCAAGUCCUAAGUCAACAGAUCUUCUGUUGAUAUGGAUGCAGUUCACAGACUAAAUGUCGGUCGGGGAAGAUGUAUUCUUCUCAUAAGAUAUAGUCGGACCUCUCCUUAAUGGGAGCUAGCGGAUGAAGUGAUGCAACACUGGAGCCGCUGGGAACUAAUUUGUAUGCGAAAGUAUAUUGAUUAGUUUUGGAGUACUCGUGGUCG
Procedure, shortened: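 Colonies from six replicate transformations of E. coli BL21(DE3) were pooled and amplicon-sequenced on an Illumina HiSeq 2500. The library placed an intron with all eight P1ex-region nucleotides randomised inside the knt kanamycin-resistance gene on pET-22b(+), and cells grew overnight at 37°C or 30°C on LB agar with or without 25 μg/mL kanamycin (plus 100 μg/mL carbenicillin, 50 μM IPTG, 0.2% rhamnose). Fitness is the DiMSum error-weighted combination of wild-type-normalised replicate fold changes, kanamycin versus none.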

Row | Sequence | self-splicing fitness (ln) (30 °C) | self-splicing fitness (ln) (37 °C)
1 | AAGAAGCAAUAUUACGAUGU | -1.29 ± 0.086 | -1.01 ± 0.1
2 | AAGAAGCAAUAUUACGAUUC | -1.49 ± 0.1 | -0.941 ± 0.14
3 | AAGAAGCAAUAUUACGCCGG | -2.02 ± 0.24 | -1.81 ± 0.18
4 | AAGAAGCAAUAUUACGCCUG | -0.11 ± 0.11 | -0.509 ± 0.14
5 | AAGAAGCAAUAUUACGCGAU | -3.59 ± 0.41 | -2 ± 0.42
6 | AAGAAGCAAUAUUACGCGCG | -0.562 ± 0.12 | -0.0457 ± 0.15
7 | AAGAAGCAAUAUUACGCGUU | -2.74 ± 0.11 | -1.32 ± 0.11
8 | AAGAAGCAAUAUUACGCUUG | -1.23 ± 0.11 | -0.951 ± 0.14
9 | AAGAAGCAAUAUUACGGAUG | -1.8 ± 0.076 | -2.03 ± 0.12
10 | AAGAAGCAAUAUUACGGCAG | -1.35 ± 0.099 | -0.774 ± 0.12
11 | AAGAAGCAAUAUUACGGGCU | -1.35 ± 0.13 | -2.09 ± 0.2
12 | AAGAAGCAAUAUUACGGUGC | -3.77 ± 0.2 | -1.68 ± 0.17
13 | AAGAAGCAAUAUUACGGUUC | -2.86 ± 0.14 | -0.743 ± 0.15
14 | AAGAAGCAAUAUUACGUAAA | -2.27 ± 0.1 | -1.14 ± 0.14
15 | AAGAAGCAAUAUUACGUCCC | -1.06 ± 0.16 | 0.89 ± 0.21
16 | AAGAAGCAAUAUUACGUGGG | -2.71 ± 0.13 | -2.57 ± 0.14
17 | AAGAAGCAAUAUUACGUGGU | -3.58 ± 0.14 | -2.23 ± 0.14
18 | AAGAAGCAAUAUUACGUUAG | -3.65 ± 0.31 | -2.77 ± 0.22
19 | AAGCAGCAAUAUUACGACUA | -0.00923 ± 0.1 | -0.791 ± 0.13
20 | AAGCAGCAAUAUUACGAGAU | -3.14 ± 0.17 | -1.61 ± 0.14
21 | AAGCAGCAAUAUUACGAGGG | -2.45 ± 0.14 | -2.28 ± 0.2
22 | AAGCAGCAAUAUUACGAGUA | -2.87 ± 0.19 | -2.08 ± 0.14
23 | AAGCAGCAAUAUUACGAUCG | -2.29 ± 0.14 | -0.905 ± 0.12
24 | AAGCAGCAAUAUUACGAUUU | 0.17 ± 0.061 | 0.619 ± 0.079
25 | AAGCAGCAAUAUUACGCAAU | -1.23 ± 0.085 | -1.22 ± 0.091

Row | Sequence | self-splicing fitness (ln) (30 °C) | self-splicing fitness (ln) (37 °C)
26 | AAGCAGCAAUAUUACGCAGC | -2.55 ± 0.16 | -3.41 ± 0.39
27 | AAGCAGCAAUAUUACGCAGU | -3.36 ± 0.23 | -1.52 ± 0.13
28 | AAGCAGCAAUAUUACGCCAG | -2.67 ± 0.36 | -1.43 ± 0.41
29 | AAGCAGCAAUAUUACGCGCA | -1.73 ± 0.14 | -0.501 ± 0.2
30 | AAGCAGCAAUAUUACGCUAG | -2.56 ± 0.12 | -2.84 ± 0.14
31 | AAGCAGCAAUAUUACGGAAA | -2.74 ± 0.12 | -2.26 ± 0.14
32 | AAGCAGCAAUAUUACGGCAA | -0.0737 ± 0.06 | 0.139 ± 0.081
33 | AAGCAGCAAUAUUACGGCGU | -0.0119 ± 0.067 | 0.201 ± 0.079
34 | AAGCAGCAAUAUUACGGGAA | -3.05 ± 0.22 | -2.15 ± 0.17
35 | AAGCAGCAAUAUUACGGUAU | -1.55 ± 0.055 | -1.13 ± 0.078
36 | AAGCAGCAAUAUUACGUCCC | -1.01 ± 0.15 | -0.803 ± 0.2
37 | AAGCAGCAAUAUUACGUCCU | -0.341 ± 0.081 | -0.442 ± 0.094
38 | AAGCAGCAAUAUUACGUUUA | -1.53 ± 0.084 | -0.691 ± 0.074
39 | AAGGAGCAAUAUUACGAGAU | – | -2.41 ± 0.24
40 | AAGGAGCAAUAUUACGCCGA | -2.33 ± 0.18 | -0.979 ± 0.26
41 | AAGGAGCAAUAUUACGCGCG | -2.19 ± 0.24 | -0.975 ± 0.23
42 | AAGGAGCAAUAUUACGCUAG | -2.17 ± 0.2 | –
43 | AAGGAGCAAUAUUACGCUCA | – | -0.14 ± 0.37
44 | AAGGAGCAAUAUUACGGACG | – | -0.216 ± 0.26
45 | AAGGAGCAAUAUUACGGAUU | -2.19 ± 0.11 | -1.69 ± 0.095
46 | AAGGAGCAAUAUUACGGCCG | -1.99 ± 0.45 | –
47 | AAGGAGCAAUAUUACGGCUA | -1.92 ± 0.12 | -0.126 ± 0.13
48 | AAGGAGCAAUAUUACGGGCU | -2.94 ± 0.24 | -2.53 ± 0.28
49 | AAGGAGCAAUAUUACGGGGA | -3.91 ± 0.29 | -2.25 ± 0.25
50 | AAGGAGCAAUAUUACGUGAA | -2.22 ± 0.34 | –

Row | Sequence | self-splicing fitness (ln) (30 °C) | self-splicing fitness (ln) (37 °C)
51 | AAGGAGCAAUAUUACGUGCG | -2.36 ± 0.19 | -2.09 ± 0.23
52 | AAGGAGCAAUAUUACGUUGC | -4.58 ± 0.42 | -1.71 ± 0.23
53 | AAGGAGCAAUAUUACGUUGU | -2.61 ± 0.15 | -2.53 ± 0.21
54 | AAGUAGCAAUAUUACGAACA | -1.1 ± 0.13 | -0.811 ± 0.18
55 | AAGUAGCAAUAUUACGACAA | -0.505 ± 0.073 | 0.0804 ± 0.084
56 | AAGUAGCAAUAUUACGACAU | 0.0523 ± 0.012 | -0.0429 ± 0.033
57 | AAGUAGCAAUAUUACGACCA | -1.55 ± 0.16 | 0.396 ± 0.21
58 | AAGUAGCAAUAUUACGACUA | -0.0153 ± 0.098 | 0.0263 ± 0.13
59 | AAGUAGCAAUAUUACGAGGG | -3.71 ± 0.24 | -3.29 ± 0.28
60 | AAGUAGCAAUAUUACGAGUU | -1.86 ± 0.098 | -0.204 ± 0.096
61 | AAGUAGCAAUAUUACGAUCC | -0.772 ± 0.19 | -0.304 ± 0.29
62 | AAGUAGCAAUAUUACGAUGA | -0.567 ± 0.14 | -0.511 ± 0.15
63 | AAGUAGCAAUAUUACGCAAU | -2.09 ± 0.14 | -1.46 ± 0.17
64 | AAGUAGCAAUAUUACGCGCU | -1.47 ± 0.11 | -0.822 ± 0.12
65 | AAGUAGCAAUAUUACGCGUA | -2.15 ± 0.13 | -1.29 ± 0.14
66 | AAGUAGCAAUAUUACGCUCA | -0.287 ± 0.076 | 0.5 ± 0.094
67 | AAGUAGCAAUAUUACGGACU | -0.577 ± 0.11 | -0.212 ± 0.15
68 | AAGUAGCAAUAUUACGGAUG | -3.53 ± 0.39 | -1.76 ± 0.17
69 | AAGUAGCAAUAUUACGGGAG | -4.01 ± 0.27 | -2.82 ± 0.23
70 | AAGUAGCAAUAUUACGGGUA | -1.49 ± 0.16 | -1.09 ± 0.17
71 | AAGUAGCAAUAUUACGGUAC | -2.65 ± 0.18 | -1.75 ± 0.18
72 | AAGUAGCAAUAUUACGGUCU | -0.291 ± 0.062 | -0.0526 ± 0.086
73 | AAGUAGCAAUAUUACGUACA | -0.476 ± 0.11 | -0.759 ± 0.14
74 | AAGUAGCAAUAUUACGUAGG | -4.35 ± 0.28 | -1.75 ± 0.18
75 | AAGUAGCAAUAUUACGUAUG | -3.38 ± 0.22 | -1.4 ± 0.19

Row | Sequence | self-splicing fitness (ln) (30 °C) | self-splicing fitness (ln) (37 °C)
76 | AAGUAGCAAUAUUACGUCGU | -0.969 ± 0.093 | -0.724 ± 0.11
77 | AAGUAGCAAUAUUACGUGAC | -2.41 ± 0.19 | -1.85 ± 0.4
78 | AAGUAGCAAUAUUACGUGAU | -2.24 ± 0.098 | -1.77 ± 0.12
79 | AAGUAGCAAUAUUACGUUGC | -3.66 ± 0.14 | -3.19 ± 0.21
80 | AAGUAGCAAUAUUACGUUGG | -2.96 ± 0.18 | -2.2 ± 0.23
81 | AAUAAGCAAUAUUACGAACU | -0.169 ± 0.11 | 0.509 ± 0.14
82 | AAUAAGCAAUAUUACGAGCC | -3.73 ± 0.29 | -1.64 ± 0.22
83 | AAUAAGCAAUAUUACGCAGA | -3.73 ± 0.3 | -2.38 ± 0.23
84 | AAUAAGCAAUAUUACGCCGA | -0.856 ± 0.14 | -0.632 ± 0.16
85 | AAUAAGCAAUAUUACGCGAA | -1.74 ± 0.12 | -1.01 ± 0.12
86 | AAUAAGCAAUAUUACGCGGU | -3.83 ± 0.24 | -2.36 ± 0.17
87 | AAUAAGCAAUAUUACGCUGU | -2.61 ± 0.23 | -1.92 ± 0.22
88 | AAUAAGCAAUAUUACGCUUG | -1.39 ± 0.13 | -0.982 ± 0.15
89 | AAUAAGCAAUAUUACGGGCU | -1.54 ± 0.14 | -1.6 ± 0.14
90 | AAUAAGCAAUAUUACGUAUG | -2.2 ± 0.11 | -0.966 ± 0.12
91 | AAUAAGCAAUAUUACGUCUA | -0.766 ± 0.077 | 0.434 ± 0.1
92 | AAUAAGCAAUAUUACGUUAG | -4.52 ± 0.19 | -2.69 ± 0.17
93 | AAUAAGCAAUAUUACGUUGG | -2.74 ± 0.28 | -3 ± 0.38
94 | AAUAAGCAAUAUUACGUUUG | -3.16 ± 0.11 | -1.36 ± 0.1
95 | AAUCAGCAAUAUUACGAACC | -0.433 ± 0.11 | 0.499 ± 0.18
96 | AAUCAGCAAUAUUACGACCA | -0.116 ± 0.1 | 0.885 ± 0.12
97 | AAUCAGCAAUAUUACGAGAU | -2.72 ± 0.11 | -0.708 ± 0.1
